The values below come from the RNAGym collection of RNA variant scans (doi:10.1093/molbev/msab373).

To fix the notation:
B1: Azoarcus group I ribozyme (parent)
chain: GUGCCUUGCGCCGGGAAACCACGCAAGGGAUGGUGUCAAAUUCGGCGAAACCUAAGCGCCCGCCCGGGCGUAUGGCAACGCCGAGCCAAGCUUCGGCGCCUGCGCCGAUGAAGGUGUAGAGACUAGACGGCACCCACCUAAGGCAAACGCUAUGGUGAAGGCAUAGUCCAGGGAGUGGCGAAAGUCACACAAACCGG

Variants of B1 are the subject of the data set. Put plainly: reverse-splicing fitness (ratio to wild type); higher = more active; in vitro selection; Mg2+ level not given. In short, it runs like this: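 An in vitro group I ribozyme library with randomized positions was T7-transcribed and gel-purified. In triplicate, 10 pmol RNA in EPPS pH 7.5 was reacted with 50 pmoles of a 30-nt RNA substrate for 1 h at 37 °C across several added MgCl2 levels (1–48 mM), then stopped with EDTA. Products were reverse transcribed from a substrate-complementary primer, PCR-amplified and sequenced (HiSeq 4000). Fitness is a variant's read proportion after selection over that before, normalised to wild type.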
As to C82A A111U A120U A145U C150A C169A, the reverse-splicing fitness worked out at 0.00286.
For the variant A111G A120G C150G C169G U176G, the reverse-splicing fitness was determined as 0.00386.
The result for C82A A111G A145U C150U reads 0.254; that for C82U A111U A120U C169A U176A, 0.00285; that for C82A A145U C150G C169A U176C, 0.00974.
On to C82A A120C A145C C150G C169U U176G, for which the reverse-splicing fitness stood at 0.00498.
For the variant A145U C169A U176A, the reverse-splicing fitness was found to be 0.0255.
Take C82U A111U A145C C150U C169U U176A: the reverse-splicing fitness worked out at 0.0134.
Regarding C82A A111C A120C A145U C150G, the reverse-splicing fitness came to 0.00822.
Consider A111C A145C C150G C169G, for which the reverse-splicing fitness came to 0.0102.
The result for C82U A111C A120C C169A U176G reads 0.00546; that for C82U A111C A120G A145U C150G, 0.00658; that for C82A A111G A120G A145C C150G C169A U176A, 0.00923.
Turning to C82A A111U A145U C169U U176A, the reverse-splicing fitness amounted to 0.0142.
The result for C82A A111U C150U C169G reads 0.0102; that for A111G A120C A145G C150U U176G, 0.0682.
Consider C82A A111G C150G C169U, for which the reverse-splicing fitness is 0.0107.
The figure for C82G A111C A145U C150G U176A is 0.0124; for C82G A120G A145C C150U C169U U176A it is 0.0184.
The result for C82A A111C A145C U176G reads 0.0188; that for C82U A111G C150U C169U U176G, 0.00589.
The result for C82A A111C A145U C150A U176A reads 0.0127.
Take A120C A145U C150U U176A: the reverse-splicing fitness was 0.652.
The result for C82G A111G A120C A145C C150A reads 0.011.
The figure for C82U A111U C150U U176C is 0.0816; for A111G A120G A145G C150U C169G U176C it is 0.078.
C82G A120C C169A U176G: the reverse-splicing fitness is 0.00393.
The result for C82U A111G A120G A145C C169U U176A reads 0.0189; that for C82U A111G A120G A145C C150U C169G U176G, 0.0045.
The figure for C82U A111G A120U A145G C150U C169G is 0.00615; for C82G A111U A120U A145G C150G C169G U176C it is 0.00596; for C82G A111U A120U A145G C150G C169G U176G it is 0.00407.
Regarding C82G A120G C150G C169U U176C, the reverse-splicing fitness was determined as 0.0158.
Turning to A120G A145G C150A U176G, the reverse-splicing fitness is 0.0109.
The figure for C82A A111C A120U C169G is 0.00388; for C82U A111G A120U A145C C150U it is 0.011; for A111C A120C A145U C150U C169U U176A it is 0.028.
The figure for C82G A111C A120U A145G C169U is 0.00527.
The figure for C82G A111C A120C A145C C150G C169U U176G is 0.00572; for C82A A111G A120G C150A C169U U176A it is 0.0244; for C82G A111G C150G C169G U176G it is 0.00613.
A111G C150U C169U U176C: the reverse-splicing fitness came out at 0.0507.
The result for C82A A111G A120U A145U C150U C169U reads 0.00376; that for C82U A120U A145U C150A C169G U176G, 0.00147.
Regarding C82A A111C A120G C169U U176A, the reverse-splicing fitness amounted to 0.0144.
For C82A A111C A145C C169A U176G, the reverse-splicing fitness came out at 0.00693.
As to C82G A111U A120G C169A U176A, the reverse-splicing fitness came out at 0.017.
The result for C82U A111C A120U U176G reads 0.00301.
The result for C82U A111C A120C A145C C150A C169U U176A reads 0.0156; that for C82U A111U A120U A145C C150A C169A U176G, 0.00264; that for C82G A120U C169A U176A, 0.00247.
On to C82G A120C A145U C150A C169A, for which the reverse-splicing fitness turned out to be 0.00989.
Turning to C82G C150U C169A, the reverse-splicing fitness stood at 0.0106.
The figure for C82G A111C A120C A145G C150G C169U U176G is 0.0072; for C82G A111G A120U A145G C150G U176G it is 0.00375.
The result for A111C A145G C150U U176G reads 0.135.
The result for C82G A120C A145G C150A C169G reads 0.00895; that for A120G A145U C150U C169A U176G, 0.00609.
In the case of C82U A111U A120C C150U C169G, the reverse-splicing fitness was determined as 0.00829.
The figure for C82U A111G A120G A145U C169U U176C is 0.0133.
With C82A A111U A120C A145C C169U U176A, the reverse-splicing fitness is 0.0168.
The result for A111C C150U U176G reads 0.138.
The figure for C82U A111C A120G A145G C150A C169U U176C is 0.0153; for C82U A111G A120C C150G U176G it is 0.00249; for C82U A145C C150G C169A it is 0.00743.
The figure for C82G A145U C150A U176A is 0.0428; for C82A A111C A120C A145C C150A C169U it is 0.0105.
As for C82G A111C A120G A145C C169U U176C, the reverse-splicing fitness came out at 0.0154.
In the case of C82U A111C A120G, the reverse-splicing fitness was determined as 0.0151.
The result for C82U A145C C150U C169G reads 0.00634; that for C82A A111U A120U A145G C150U C169G U176C, 0.00667; that for A120U A145U C169A U176C, 0.00507.
The figure for C82G A120C A145U C150G C169A U176C is 0.0102; for C82U A120U A145C C150G C169A it is 0.00211; for A111G A120C C169A U176C it is 0.0167.
As for A111U C150A C169A, the reverse-splicing fitness came to 0.0111.
In the case of C82A A120G A145C C150A C169U U176A, the reverse-splicing fitness was 0.0192.
The figure for C82G A111G A120G A145C C150G U176G is 0.00368; for C82U A111C A120C A145U C150A C169A it is 0.00776; for C82U A145U C150A it is 0.0658.
Take A111C A120G C150U C169A U176A: the reverse-splicing fitness is 0.0176.
On to C82A A111U A120C A145U C150U C169U, for which the reverse-splicing fitness amounted to 0.0116.
The result for A145U C150U C169G U176A reads 0.0606; that for C82U A111U A120G A145G C150U U176A, 0.00911.
